# “And” between values parts separate entries of the source, which are not always exact repeats. Equal values may be shown once.
# T1: horseradish peroxidase (HRP) (UniProt P00433 31-338)
# T1 sequence: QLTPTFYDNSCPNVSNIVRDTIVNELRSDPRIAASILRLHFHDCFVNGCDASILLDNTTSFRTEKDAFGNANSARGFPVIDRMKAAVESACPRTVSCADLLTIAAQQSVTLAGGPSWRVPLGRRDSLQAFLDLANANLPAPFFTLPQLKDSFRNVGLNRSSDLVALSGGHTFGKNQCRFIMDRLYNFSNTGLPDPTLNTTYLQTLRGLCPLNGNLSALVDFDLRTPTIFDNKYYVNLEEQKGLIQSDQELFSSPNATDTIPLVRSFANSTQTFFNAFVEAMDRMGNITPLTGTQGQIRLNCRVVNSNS
# B1: FimC (other)
# chain: GVALGATRVIYPAGQKQVQLAVTNNDENSTYLIQSWVENADGVKDGRFIVTPPLFAMKGKKENTLRILDATNNQLPQDRESLFWMNVKAIPSMDKSKLTENTLQLAIISRIKLYYRPAKLALPPDQAAEKLRFRRSANSLTLINPTPYYLTVTELNAGTRVLENALVPPMGESAVKLPSDAGSNITYRTINDYGALTPKMTGVME
# notes: also called FimC protein
# Assays:
# [1] = target: FimH (Escherichia coli, UniProt P08191); assay: biochemical; conditions: concentration at which 50% inhibition of HRP binding to FimH is observed, inhibitor added in the HRP binding step
# FimH (Escherichia coli, UniProt P08191), sequence (P08191 22-300 P197R/T222H, one chain of several): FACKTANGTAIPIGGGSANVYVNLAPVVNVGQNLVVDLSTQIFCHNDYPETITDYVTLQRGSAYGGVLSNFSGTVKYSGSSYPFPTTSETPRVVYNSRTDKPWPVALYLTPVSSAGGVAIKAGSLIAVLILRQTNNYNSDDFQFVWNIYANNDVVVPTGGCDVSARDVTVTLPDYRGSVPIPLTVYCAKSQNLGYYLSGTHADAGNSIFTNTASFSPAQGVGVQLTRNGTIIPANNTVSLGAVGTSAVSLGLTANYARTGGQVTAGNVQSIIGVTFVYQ
# Protocol: (§1) The biological activity of the FimCH drug substance (for example, from Example 3) is determined by an in vitro mannose binding assay. The FimH protein is a bacterial adhesin utilized by E. coli to bind mannose residues on glycosylated proteins. During urinary tract infections, the FimH adhesin binds mannosylated uroplakin proteins on bladder epithelial cells, which promotes the internalization of bound E. coli. The binding of FimH to mannosylated uroplakin is essential for E. coli to cause urinary tract infections. To monitor the mannose-binding activity of FimH in vitro, FimH binding to the enzyme horseradish peroxidase (HRP) is observed. HRP is a glycosylated protein containing mannose residues, and has previously been used to study mammalian mannose-binding receptors. Complexes of HRP and the lectin ConA, which binds α-D-mannosyl and α-D-glucosyl groups, have also been generated and studied.
# (§2) HRP is then added, excess HRP is rinsed away, and the activity of bound HRP is detected.
# [2] = target: FimH (Escherichia coli, UniProt P08191, P197R/T222H); assay: biochemical
# FimH (Escherichia coli, UniProt P08191, P197R/T222H), sequence (P08191 22-300 P197R/T222H, one chain of several): as above
# Protocol: as §1, §2
# [3] = Storage stability of FimCH; type: physicochemical; conditions: stored at −20° C., 0.3 mg/mL in 20 mM MES pH 5.9 or 20 mM trisodium citrate, pH 5.4
# Protocol: For the HIC column used Butyl Sepharose 4FF (GE Healthcare 17-0980-01) in XK26 column. Buffer C: 20 mM MES/550 mM Ammonium Sulfate, pH 5.9; 8 ml/min for XK26/10 except loading, pre-equilibrate the column with 3 CV of Buffer A (as above), equilibrate the column with 6 CV of Buffer C, load Pooled FimCH sample at 5 ml/min XK26/10 column, wash the column with 6 CV of Buffer C, elute the column with a linear 4 CV gradient from 0-100% Buffer A with fraction collection. FimCH is formulated in the concentration of 0.3 mg/mL in 20 mM MES pH 5.9 or 20 mM trisodium citrate, pH 5.4. It is then aseptically filtered through a 0.2 μm sterile filter. FimCH is stable and can be stored at −20° C. for about at least 2 years.
# [4] = target: T1, horseradish peroxidase (HRP); assay: in vitro potency assay; inferred from the lack of HRP signal with the Q133K FimH-FimC complex
molecule,measurement,setting,value
"CO[C@H]1O[C@H](CO)[C@@H](O)[C@H](O)[C@@H]1O [MDMP, methyl-α-D-mannopyranoside]",IC50,[1],~5.15 µM and ~5.1 µM
same,fold higher 50% inhibition concentration than UFMP,[2]; MDMP versus UFMP,approximately 100 fold
"FimCH: non-covalent complex of FimC and FimH recombinant proteins, approximately 51,700 Daltons",time stable on storage,[3],at least 2 years
same,HRP binding (mannose-binding activity),[2]; captured by anti-FimH antisera on ELISA plate,dose-dependent
B1,binding result,[4],no binding

# — patent US20150086592A1, “COMPOSITIONS OF VACCINES AND ADJUVANTS AND METHODS FOR THE TREATMENT OF URINARY TRACT INFECTIONS” (Sequoia Sciences, Inc, priority 2013, published 2015)
